From US20250283886

Tests used:
[1] = tested on: […]{LYS(N3)} peptide-linker conjugate, PEG4 linker (Table 6 entry 11)
[2] = tested on: […]{LYS(N3)} peptide-linker conjugate, oligo linker (Table 6 entry 10)
[3] = tested on: […]{LYS(N3)} peptide-linker conjugate, oligo linker (Table 6 entry 8)
[4] = tested on: […]{LYS(N3)} peptide-linker conjugate, oligo linker (Table 6 entry 9)

Substance: Y. pestis proline iminopeptidase
- Cleaved by PIP [1]: Yes
- Cleaved by PIP [2]: No
- Cleaved by PIP [3]: Yes
- Cleaved by PIP [4]: Yes
